Measured values reported in patent US20100279930A1 (published 2010).
Read-outs that look alike come from different tables or passages of the source.

How the values were obtained:
human Y4 receptor [1] = target: T1, human Y4 receptor (human, UniProt P50391 1-375); test: 125I-PP displacement
human Y4 receptor [2] = target: T1, human Y4 receptor; test: 125I-PP displacement; remark: listed apart in the source

T1 sequence (P50391 whole entry): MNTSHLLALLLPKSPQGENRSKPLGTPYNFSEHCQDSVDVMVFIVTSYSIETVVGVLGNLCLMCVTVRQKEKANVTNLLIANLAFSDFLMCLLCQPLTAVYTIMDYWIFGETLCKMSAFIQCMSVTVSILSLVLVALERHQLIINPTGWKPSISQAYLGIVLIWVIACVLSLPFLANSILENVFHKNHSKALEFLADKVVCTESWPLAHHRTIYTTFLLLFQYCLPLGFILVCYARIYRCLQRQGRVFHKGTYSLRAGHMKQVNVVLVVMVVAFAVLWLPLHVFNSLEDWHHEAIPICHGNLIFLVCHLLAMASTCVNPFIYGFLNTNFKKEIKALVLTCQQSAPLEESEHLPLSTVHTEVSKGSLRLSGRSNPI

| IC50 (human Y4 receptor [1]) | IC50 (human Y4 receptor [2]) | Binder |
| --- | --- | --- |
| 0.089 nM | – | APLEPKYPGDDATPEELAHYYSELRRYINKLTRPRY [4058707] |
| 0.079 nM | – | AAPLEPKYPGDDATPEELAHYYSELRRYINKLTRPRY [4058708] |
| 0.098 nM | – | AAPLEPKYPGDNATPEELAKYAAELRRYINKLTRPRY [4058689] |
| – | 0.28 nM | AAAPLEPVYPGDNATPEQMAQYAADLRRYINMLTRPRY [6655] |
| 0.059 nM | – | APLEPHYPGDNATPEELAKYAAELRRYINKLTRPRY [4058703] |
| 0.045 nM | – | APLEPHYPGDNATPEEMAKYAAELRRYINKLTRPRY [4058696] |
| – | 0.13 nM | APLEPFYPGDNATPEQMAQYAAALRRYINMLTRPRY [6605] |
| – | 0.85 nM | APLEPVYPGDNATPEQMAQYAKDLRRYINMLTRPRY [6465] |
| – | 0.55 nM | APLEPVYPGDNATPEQLAQYAADLRRYINMLTRPRY [6429] |
| – | 0.3 nM | APLEPVYPGDNATHEQMAQYAADLRRYINMLTRPRY [6441] |
| – | 0.13 nM | KPLEPVYPGDNATPEQMAQYAADLRRYINMLTRPRY (not fully specified; lauryl-lysine at position 1 (replaces Ala 1)) [compound of SEQ ID NO:11 (code 6435)] |
| – | 4 nM | APLKPVYPGDNATPEQMAQYAADLRRYINMLTRPRY [6443] |
| – | 0.13 nM | APLEPVYPGDDATPQQMAQYAAELRRYINMLTRPRY [6457] |
| – | 0.15 nM | APLEPVYPGDNATPEQMAHYYASLRRYINMLTRPRY [6640] |
| – | 0.5 nM | APLEPVYPGDNATPEQTAQYAADLRRYINTLTRPRY [6638] |
| – | 1.29 nM | APLEPVYPGDNATPEKMAQYAADLRRYINMLTRPRY [6466] |
| – | 2.2 nM | APLEPVYPGDNATPEQMAQYAADLRRYINMLTRPAY [6449] |
| – | 0.49 nM | APLEPVYPGDNATPEQMAQYAADLRHYINMLTRPRY [6438] |
| – | 0.42 nM | APLEPVYPGDNATPEQMAQYAADLRRYINMLTKPRY [6452] |
| – | 0.36 nM | APLEPVYPGDNATPEQMAQYAADLKRYINMLTRPRY [6432] |
| – | 8.8 nM | APLEPVYPGDNATPEQMAQYAADLRRYINMLTAPRY [6450] |
| – | 0.18 nM | APLEPEYPGDNATPEQMAQYAAELRRYINMLTRPRY [6458] |

| IC50 (human Y4 receptor [1]) | IC50 (human Y4 receptor [2]) | Binder |
| --- | --- | --- |
| – | 0.3 nM | APLEPVYPGDNATPEQMAQYAADLRRYINTLTRPRY [6437] |
| – | 0.25 nM | KPLEPVYPGDNATPEQMAQYAADLRRYINMLTRPRY [6434] |
| – | 0.47 nM | APLEPVYPGDNATPEQMAQYAADLRKYINMLTRPRY [6431] |
| – | 0.6 nM | GPLEPVYPGDNATPEQMAQYAADLRRYINMLTRPRY [6636] |
| – | 0.48 nM | KPLEPVYPGDNATPEQMAQYAADLRRYINMLTRPRY [6436] |
| – | 4.5 nM | APLKPVYPGDNATPEQMAQYAADLRRYINMLTRPRY [5920] |
| – | 0.41 nM | APLEPVYPGDNATPEQMAQYAADLRRYINLLTRPRY [6430] |
| – | 0.2 nM | APLEPVYPGDNATPEELNRYYASLRRYINMLTRPRY [6460] |
| 0.105 nM | – | PAPLEPKYPGDNATPEELAKYAAELRRYINKLTRPRY [4058671] |
| 0.074 nM | – | PAPLEPKAPGDNATPEQMAKYAAELRRYINKLTRPRY [4058668] |
| – | 0.18 nM | APLEPVYPGDNATPEQMARYYASLRHYLNMLTRPRY [6462] |
| – | 1.2 nM | APLEPVYPGDNATEEELVKYFIDLRRYINMLTRPRY [6622] |
| – | 16 nM | APLEPVYPGDNATEEEAVRLFIDLRRYINMLTRPRY [6621] |
| 0.095 nM | – | PLEPEYPGDNATPEEMAKYAADLRRYINKLTRPRY [4058675] |
| 0.138 nM | – | PLEPEYPGDNATPEELAKYAAELRRYINKLTRPRY [4058677] |
| – | 0.17 nM | HAPLEPVYPGDNATPEQMAQYAADLRRYINMLTRPRY [compound of SEQ ID NO:53 (code 6650)] |
| – | 0.22 nM | AAPLEPVYPGDNATPEQMAQYAADLRRYINLLTRPRY [6656] |
| – | 0.36 nM | DAPLEPVYPGDNATPEQMAQYAADLRRYINMLTRPRY [6652] |
| – | 0.21 nM | KAPLEPVYPGDNATPEQMAQYAADLRRYINMLTRPRY [compound of SEQ ID NO:52 (code 6647)] |
| – | 0.35 nM | EAPLEPVYPGDNATPEQMAQYAADLRRYINMLTRPRY [6651] |
| – | 0.21 nM | PAPLEPVYPGDNATPEQMAQYAADLRRYINMLTRPRY [compound of SEQ ID NO:56 (code 6653)] |
